These results are taken from article PMC7116727.

Broadly, the stoichiometry N is a count of units in the complex or per binding partner.

The test has as its target S2 component of the furin-cleaved SARS-CoV-2 spike ectodomain ('2P' mutant) (SARS-CoV-2) (UniProt P0DTC2). The test can be described thus: cryo-EM structure.

“S2 component of the furin-cleaved SARS-CoV-2 spike ectodomain ('2P' mutant) (from UniProt P0DTC2) (domain or fragment)” displayed a stoichiometry N of 3.
